In the supplement of paper PMC10724198:
± gives the standard deviation of the averaged measurements.

Key:
Saccharomyces cerevisiae [1] = experiment: protein stability index of tFT-peptide fusion (C-terminal peptide) (PSI (0-1 scale)); higher = more stable (slower turnover); conditions: genetic background: wild type; temperature: 30 C
Saccharomyces cerevisiae [2] = experiment: as above
Description: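 MPS profiling in S. cerevisiae of the tFT-X12 degron library: putative degron peptides plus stable controls, 12 aa, fused to the C-terminus of a sfGFP-mCherry timer. Cells are FACS-sorted into 8 mCherry/sfGFP bins and deep-sequenced. PSI runs from 0 (unstable) to 1 (stable). Backgrounds are wild type, das1Δ and doa10Δ at 30 °C, and wild type, das1Δ, cdc34-1 and cdc53-1 at 37 °C; 2-3 technical replicates each.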

[3] = genetic background: cdc34-1, temperature: 37 C
[4] = genetic background: cdc53-1, temperature: 37 C
[5] = genetic background: das1 deletion, temperature: 30 C
[6] = genetic background: das1 deletion, temperature: 37 C
[7] = genetic background: doa10 deletion, temperature: 30 C
[8] = genetic background: wild type, temperature: 30 C
[9] = genetic background: wild type, temperature: 37 C
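Also: PSI is a weighted mean of sequencing reads over stability bins, variants kept only with over 10 reads, mCherry proximal and sfGFP distal, peptide attached via GGGS linker.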

Sequence | protein stability index (Saccharomyces cerevisiae [1]) | protein stability index (Saccharomyces cerevisiae [2]; [3]) | protein stability index (Saccharomyces cerevisiae [2]; [4]) | protein stability index (Saccharomyces cerevisiae [2]; [5]) | protein stability index (Saccharomyces cerevisiae [2]; [6]) | protein stability index (Saccharomyces cerevisiae [2]; [7]) | protein stability index (Saccharomyces cerevisiae [2]; [8]) | protein stability index (Saccharomyces cerevisiae [2]; [9])
CKFLYMALLFFW | 0.299 ± 0.061 | 0.278 ± 0.0085 | 0.364 ± 0.0087 | 0.263 ± 0.032 | 0.423 ± 0.025 | 0.313 ± 0.02 | 0.288 ± 0.025 | 0.392 ± 0.00069
CLFLVFCFCVCS | 0.498 ± 0.048 | 0.59488 ± 0.00049 | 0.62042 ± 0.00025 | 0.547 ± 0.031 | 0.596 ± 0.077 | 0.534 ± 0.018 | 0.512 ± 0.02 | 0.531 ± 0.032
CLGFWVCCYCLV | 0.396 ± 0.029 | 0.537 ± 0.037 | 0.589 ± 0.044 | 0.474 ± 0.006 | 0.592 ± 0.0093 | 0.246 ± 0.0084 | 0.281 ± 0.035 | 0.48 ± 0.017
CLHWFMVLFRVL | 0.119 ± 0.022 | 0.139 ± 0.051 | 0.12 ± 0.018 | 0.296 ± 0.043 | 0.426 ± 0.0053 | 0.212 ± 0.013 | 0.122 ± 0.037 | 0.203 ± 0.015
CLLLVISSLCSG | 0.403 ± 0.011 | 0.416 ± 0.047 | 0.462 ± 0.073 | 0.336 ± 0.014 | 0.529 ± 0.023 | 0.261 ± 0.0032 | 0.301 ± 0.0098 | 0.4964 ± 0.0038
CLVLCLSIPSPL | 0.55 ± 0.08 | 0.607 ± 0.027 | 0.6246 ± 0.00068 | 0.497 ± 0.03 | 0.6133 ± 0.0046 | 0.501 ± 0.018 | 0.5 ± 0.015 | 0.606 ± 0.012
CLVWLVRIIVLD | 0.298 ± 0.048 | 0.199 ± 0.019 | 0.268 ± 0.026 | 0.201 ± 0.031 | 0.366 ± 0.039 | 0.206 ± 0.005 | 0.195 ± 0.048 | 0.32 ± 0.025
CPFFFFSLIFLF | 0.298 ± 0.017 | 0.16 ± 0.058 | 0.214 ± 0.044 | 0.228 ± 0.041 | 0.329 ± 0.011 | 0.349 ± 0.025 | 0.193 ± 0.03 | 0.284 ± 0.011
CRLFPFPLLAQL | 0.488 ± 0.084 | 0.646 ± 0.034 | 0.7407 ± 0.003 | 0.628 ± 0.021 | 0.7522 ± 0.0063 | 0.425 ± 0.013 | 0.415 ± 0.025 | 0.484 ± 0.023
CSAARKDGLAPL | 0.701 ± 0.024 | 0.697 ± 0.038 | 0.722 ± 0.02 | 0.649 ± 0.02 | 0.7342 ± 0.0011 | 0.633 ± 0.021 | 0.649 ± 0.029 | 0.719 ± 0.032
CSLPVLFLPYYL | 0.486 ± 0.14 | 0.581 ± 0.025 | 0.5788 ± 0.0043 | 0.523 ± 0.022 | 0.625 ± 0.022 | 0.606 ± 0.014 | 0.492 ± 0.0051 | 0.572 ± 0.02
CSPVNGSAVWSI | 0.699 ± 0.076 | 0.688 ± 0.032 | 0.736 ± 0.016 | 0.668 ± 0.02 | 0.7551 ± 0.00081 | 0.664 ± 0.019 | 0.667 ± 0.017 | 0.7093 ± 0.0046
CSSFFLLLFFLF | 0.311 ± 0.019 | 0.351 ± 0.051 | 0.448 ± 0.018 | 0.335 ± 0.021 | 0.451 ± 0.029 | 0.301 ± 0.021 | 0.268 ± 0.01 | 0.407 ± 0.0056
CSWMRSRMWVGG | 0.3994 ± 0.0039 | 0.33 ± 0.051 | 0.419 ± 0.03 | 0.422 ± 0.0063 | 0.36 ± 0.0087 | 0.454 ± 0.014 | 0.409 ± 0.013 | 0.346 ± 0.0053
CTWGRYGGIWLR | 0.254 ± 0.058 | 0.0548 ± 0.007 | 0.0483 ± 0.033 | 0.136 ± 0.062 | 0.144 ± 0.013 | 0.668 ± 0.034 | 0.117 ± 0.023 | 0.11 ± 0.016
